# From US20070160684A1, “Methods for increasing cancer cell chemosensitivity” (priority 2005, published 2007)
# B1: HMGA2(Δ83-109): truncated HMGA2 carrying deletion of the C-terminus (protein, UniProt P52926 1-82, looked up, fragment)
# chain: MSARGEGAGQPSTSAQGQPAAPAPQKRGRGRPRKQQQEPTGEPSPKRPRGRPKGSKNKSPSKAAQKKAEATGEKRPRGRPRK
# modifications: HA tag
# notes: truncated HMGA2 carrying deletion of the C-terminus
# B2: HMGA2(Δ1-24): truncated HMGA2 carrying deletion of the N-terminus (protein, UniProt P52926 25-109, looked up, fragment)
# chain: QKRGRGRPRKQQQEPTGEPSPKRPRGRPKGSKNKSPSKAAQKKAEATGEKRPRGRPRKWPQQVVQKKPAQEETEETSSQESAEED
# modifications: HA tag
# notes: truncated HMGA2 carrying deletion of the N-terminus
# B3: HMGA2(2K/R): SUMOylation-defective HMGA2 mutant with Lys→Arg point mutations at residues 66 and 67 (protein, UniProt P52926 2-109, looked up, variant K66R K67R)
# High mobility group protein …: SARGEGAGQPSTSAQGQPAAPAPQKRGRGRPRKQQQEPTGEPSPKRPRGRPKGSKNKSPSKAAQRRAEATGEKRPRGRPRKWPQQVVQKKPAQEETEETSSQESAEED
# B4: HMGA2(4P/A): HMGA2 mutant with four Pro→Ala mutations at amino acid positions 48, 52, 76, and 80 (protein)
# chain: MSARGEGAGQPSTSAQGQPAAPAPQKRGRGRPRKQQQEPTGEPSPKRARGRAKGSKNKSPSKAAQKKAEATGEKRARGRARKWPQQVVQKKPAQEETEETSSQESAEED
# modifications: left off: small tags and cut ends
# What was measured:
# [1] = tested on: Pa-4/HMGA2 cells; experiment: FACS analysis after caffeine and Dox (G2/M, sub-G1); type: cell-based
# Method: Pa-4 and Pa-4/HMGA2 cells were seeded at 50-80% confluency in 35 mm dishes and serum starved overnight to synchronize cell cycle. […] Following treatment, cells were fixed in 70% ethanol overnight, stained with 20 μg/ml propidium iodide, and subjected to FACS analysis.
# Apoptosis was quantified by assessing sub-G1 cell populations.
# [2] = tested on: Pa-4 cells; conditions: 4 mM caffeine 1 hour, then 1 μM Dox and 4 mM caffeine 48 hours
# [3] = tested on: Pa-4 and Pa-4/HMGA2 cells; experiment: MTT cell viability assay; type: cell-based; conditions: Dox 0-7 μM or irinotecan 0-50 μM
# [4] = tested on: HeLa and HeLa/HMGA2 cells; experiment: MTT cell viability assay; type: cell-based; conditions: increasing concentrations, 72 hours
# Excerpt: HS578T, HCC1419, and CHO cells
# [5] = biological target: Ku80 (80-kDa subunit of the DNA-PK holoenzyme), endogenous in HeLa and HeLa/HMGA2 cells (UniProt P13010); experiment: co-immunoprecipitation with anti-HA antibody from transiently transfected HeLa cells, Western for Ku80, quantitated and normalized
# [6] = biological target: Ku80 (80-kDa subunit of the DNA-PK holoenzyme), endogenous in HeLa and HeLa/HMGA2 cells (UniProt P13010); experiment: co-immunoprecipitation with anti-HA antibody from transiently transfected HeLa cells; reference set to 100%
# [7] = tested on: HeLa cells; experiment: MTT viability of Dox-treated HeLa cells transfected with HMGA2 constructs; type: cell-based; conditions: transient transfection, Dox for 72 hours
# Method: FIG. 19: Correlation between HMGA2 binding of Ku80 and chemosensitization towards Dox. HeLa cells were transfected with individual HMGA2 wild type and engineered constructs and allowed to recover overnight prior to reseeding for cell viability assay. Cells were treated with Dox for 72 hours and followed by MTT assays. ** denotes p<0.01.
# To elucidate the relevance of HMGA2 complex formation with Ku80/Ku70, the viability of Dox-treated HeLa cells transfected with HMGA2 or its engineered mutants was examined. […] The augmented resistance to Dox, relative to that of vector-transfected HeLa cells, by HMGA2(Δ83-109) and HMGA2(4P/A) mutants may be due to protein-protein interactions arising from the remaining portion of HMGA2.
# [8] = biological target: T1, Ku80 (Homo sapiens, UniProt P13010); experiment: Co-immunoprecipitation of HMGA2 constructs with Ku80 in transfected HeLa cells; type: cell-based; conditions: transient transfection of HeLa cells
# T1 construct: Co-immunoprecipitation assays were performed following transient transfection of HeLa cells with these constructs; endogenous in cells; host or cells: HeLa, transiently transfected with HA-HMGA2 constructs
# Excerpt: FIG. 18: Role of protein-protein and protein-DNA interactions in the HMGA/Ku80/Ku70 interaction. Individual wild type and engineered HMGA2 expression constructs was transfected into HeLa cells. The transfected cells were allowed to recover overnight in fresh medium prior to immunoprecipitation with an anti-HA antibody. Quantitation was done with BioRad Quantity One volume report program. After normalization with transfection efficiency and the expression level of HMGA2 and its mutant, percentage of Ku80/HMGA2 interaction is calculated by designating immunoprecipitated Ku80 with wild type HMGA2 as 100%.
# To determine whether HMGA2 directly interacts with either subunit of the DNA-PK complex to dysregulate DNA-PK activation, co-immunoprecipitation assays were conducted using an anti-Ku70 antibody in HeLa and HeLa/HMGA2 cells. Cells were lysed for one hour in RIPA buffer (PBS, 1% NP40, 0.5% sodium deoxycholate, 0.1% SDS) supplemented with PMSF, aprotinin, and sodium orthovanadate immediately before use. The cell lysates were centrifuged at 10,000 rpm for 10 minutes and supernatants were collected. Protein concentrations were determined using Bradford protein assay. […] Samples were then analyzed by Western analyses. […]
# [9] = tested on: HeLa, HeLa/HMGA2, HeLa/HMGA2(2K/R) cells; experiment: MTT cell viability assay; type: cell-based; conditions: stable expression in HeLa cells, 72 hours
# Method: FIG. 14: Association of HMGA2-dependent chemosensitization with HMGA2 SUMOylation. HeLa, HeLa/HMGA2, HeLa/HMGA2(2K/R) cells were subjected to treatment with increasing concentrations of Dox (upper panel) or cisplatin (lower panel) for 72 hours, as indicated. Cell viabilities were assessed using MTT assays. * denotes p<0.05; ** denotes p<0.01.
# HMGA2 is a SUMOylation target (Cao, X. and Ann, D. K., unpublished observation). To investigate whether SUMOylation is involved in HMGA2-mediated chemosensitization, an HMGA2 mutant was constructed that carried Lysine to Arginine (Lys→Arg) point mutations at residues 66 and 67. These residues correspond to the SUMOyalation site (FIG. 13). The construct (HMGA2(2K/R)) was generated using previously described HA-HMGA2/pcDNA3.1 (Zentner 2001) as a template in conjunction with GeneEditor™ in vitro Site-Directed Mutagenesis System (Promega) and the mutagenesis primer set forth in SEQ ID NO:14. Desired mutations were confirmed by DNA sequencing analyses.
# Ku80 (80-kDa subunit of the DNA-PK holoenzyme), endogenous in HeLa and HeLa/HMGA2 cells, sequence (P13010 2-732 limits assumed): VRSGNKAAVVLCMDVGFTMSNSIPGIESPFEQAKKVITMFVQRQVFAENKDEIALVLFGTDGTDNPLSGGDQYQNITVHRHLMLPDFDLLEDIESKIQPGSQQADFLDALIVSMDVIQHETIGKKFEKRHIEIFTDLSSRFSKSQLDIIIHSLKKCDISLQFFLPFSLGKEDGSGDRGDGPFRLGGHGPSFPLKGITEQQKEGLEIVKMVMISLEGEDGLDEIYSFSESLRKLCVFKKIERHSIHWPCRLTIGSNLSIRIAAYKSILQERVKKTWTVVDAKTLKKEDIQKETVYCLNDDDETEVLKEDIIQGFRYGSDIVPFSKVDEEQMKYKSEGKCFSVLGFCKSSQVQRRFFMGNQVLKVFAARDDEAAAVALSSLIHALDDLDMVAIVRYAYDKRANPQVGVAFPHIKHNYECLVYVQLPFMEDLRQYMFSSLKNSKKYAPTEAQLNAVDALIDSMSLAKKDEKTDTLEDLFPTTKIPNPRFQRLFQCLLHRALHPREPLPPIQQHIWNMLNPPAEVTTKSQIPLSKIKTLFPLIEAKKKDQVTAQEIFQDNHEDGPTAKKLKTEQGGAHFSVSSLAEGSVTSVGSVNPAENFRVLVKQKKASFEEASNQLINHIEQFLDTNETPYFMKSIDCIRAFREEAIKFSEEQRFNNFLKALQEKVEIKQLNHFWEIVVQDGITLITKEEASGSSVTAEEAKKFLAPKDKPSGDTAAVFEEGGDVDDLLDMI
# T1 sequence (P13010 2-732 limits assumed): as above
# T1 sequence (P12956 2-609 partner limits assumed): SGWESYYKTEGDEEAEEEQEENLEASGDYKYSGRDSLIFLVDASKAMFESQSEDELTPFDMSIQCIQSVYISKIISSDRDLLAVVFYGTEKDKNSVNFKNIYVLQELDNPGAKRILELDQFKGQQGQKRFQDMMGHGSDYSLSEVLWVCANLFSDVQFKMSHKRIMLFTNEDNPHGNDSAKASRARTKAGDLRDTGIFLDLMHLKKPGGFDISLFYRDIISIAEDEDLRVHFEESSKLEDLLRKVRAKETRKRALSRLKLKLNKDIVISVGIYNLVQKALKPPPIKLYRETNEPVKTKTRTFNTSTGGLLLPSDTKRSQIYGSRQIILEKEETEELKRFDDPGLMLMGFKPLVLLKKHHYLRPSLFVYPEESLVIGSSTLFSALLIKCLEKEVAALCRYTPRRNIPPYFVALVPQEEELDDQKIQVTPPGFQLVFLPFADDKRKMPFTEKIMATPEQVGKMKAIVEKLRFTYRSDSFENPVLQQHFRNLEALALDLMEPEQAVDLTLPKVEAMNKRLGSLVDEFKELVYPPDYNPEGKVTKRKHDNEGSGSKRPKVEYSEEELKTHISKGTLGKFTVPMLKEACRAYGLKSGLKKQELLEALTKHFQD
molecule,measurement,setting,value
Cn1c(=O)c2c(ncn2C)n(C)c1=O [caffeine],"cell cycle distribution / cells in G2/M, single agent","[1]; 4 mM caffeine or 1 μM Dox, 48 hours",decreased the number of cells in G2/M
same,apoptosis with both caffeine and Dox,[1]; caffeine with Dox,apoptosis levels greater than those observed after treatment with caffeine or Dox alone
same,effect on Dox-induced G2/M arrest,[2],greatly reduced Dox-induced G2/M arrest
CCc1c2c(nc3ccc(OC(=O)N4CCC(N5CCCCC5)CC4)cc13)-c1cc3c(c(=O)n1C2)COC(=O)[C@]3(O)CC [irinotecan],difference in decrease of viability between Pa-4/HMGA2 and Pa-4 cells,[3]; 72 hours,little difference observed between the two cell types
same,cell viability / growth inhibition,[3]; 72 hours after treatment,dose-dependent growth inhibition in both cell types
CC(=O)O[C@H]1C(=O)[C@@]2(C)[C@H]([C@H](OC(=O)c3ccccc3)[C@]3(O)C[C@H](OC(=O)[C@H](O)[C@@H](NC(=O)c4ccccc4)c4ccccc4)C(C)=C1C3(C)C)[C@]1(OC(C)=O)CO[C@@H]1C[C@@H]2O [Taxol],"Taxol-induced cell growth inhibition, HeLa versus HeLa/HMGA2",[4],no substantial difference in the response to Taxol between HeLa and HeLa/HMGA2 cells
HA-HMGA2(Δ66-109) (from UniProt P52926 1-65),decrease of the interaction with Ku80 against wild-type HMGA2,[5],> 70%
HA-HMGA2 (HA-tagged wild-type high-mobility group A2 protein expressed from pcDNA3.1/HA-HMGA2 in HeLa cells) (from UniProt P52926 1-109),percentage of Ku80/HMGA2 interaction,[6],100%
HA-HMGA2(Δ83-109) (from UniProt P52926 1-82),decrease of the interaction with Ku80 against wild-type HMGA2,[5],> 50%
B1,sensitivity of transfected HeLa cells to Dox,[7],relatively greater resistance to Dox-treatment
B2,ability to interact with Ku80,[8],retained the full ability to interact with Ku80
same,sensitivity of transfected HeLa cells to Dox,[7],enhanced the sensitivity of HeLa cells to Dox
B3,effect on cytotoxicity elicited by Dox,[9],partially reversed the cytotoxicity
same,effect on cytotoxicity elicited by cisplatin,[9],partially reversed the cytotoxicity
B4,ability to interact with Ku80,[8],almost completely abrogated the binding of HMGA2 to Ku80
same,sensitivity of transfected HeLa cells to Dox,[7],relatively greater resistance to Dox-treatment
